In article PMC2688079:

Target: Aqy1 from Pichia pastoris (Pichia pastoris)
Assay: crystal structure; hanging drop vapour diffusion at 4°C, protein at 9 mg/ml in beta-octylglucopyranoside; Crystal1: 28% PEG400, 100 mM Na-citrate pH 3.5, 200 mM Li2SO4 (1.15 Å); Crystal2: 33% PEG400, 100 mM Tris pH 8.0, 100 mM NaCl, 100 mM CdCl2 (1.40 Å); both space group I4, identical structures

Aqy1 from Pichia pastoris (natural protein)
stoichiometry N: 4
